In the DeepSol protein solubility set:

Assay: soluble on expression in E. coli; label from the status in PepcDB or PDB records

Row | Sequence | soluble on expression in E. coli
1 | MSSKPRHDWFQSETDVTLTILKRGVPLDDCSVSLSDNNTLTVKQCDEILFYGQLSGQVKKDDLTVKCTAAKVEVRLPKFARNERWASLLKDGQGVAASVQSVSPNPESAPTTTVKKNWDAIEKQAVKEEEDESLEGDAAVNKMFRKMYNDASDDVRRAMMKSYSESNGTVLSTNWSEIGQKKTECQPPACMEYKEYEK | not soluble
2 | MSSLAKLGYFFDEKGVLKTEKDKKPFKFTTQEDYEELGEAVDLEVYELLETRCGLKRKALKLPGKTDEDEDLSFIFVSKNFKKAANLLVLIHGSGVVRAGQWARRLIINDNLECGTQIPYIERAIENGWGVVVMNTNLNESKDQDLKYSRTPVEHAETVWIACIEPSNAKSIYVVAHSRGGYDTASVLKKFGGDDRISKICLTDSPWFEFPKSCAQRARPLFVVNFLAHGALNSPSYKVREYREGNVAELWAGTQIHEWSSHCAIDAVFHILETEMTPSNYAEVMEEAKKLVVKSENSKESDDEAPKSKKICV | not soluble
3 | MSSPSKRREMDMMKLMMSDYKVETINDGMQEFYVEFNGPKDSLYQGGVWKIRVELPDAYPYKSPSVGFITKIYHPNVDELSGSVCLDVINQTWSPMFDLVNVFETFLPQLLLYPNPSDPLNGEAAALMMRDRPAYEQRVKEYCEKYAKPGEGSEDKSSDEELSEEEYGSDNEDDDDDDVAIAGKPDP | not soluble
4 | MSSQKSGIVVQSDETHILISSSHDIFVADPDQNTKLGDSVSFTTWDIANNLKRASDIKPRNQIVESVVYEQDQSLRLRLKILGFYDFTKSQQRVFRTDFITQVREGEKFKYLPKNAFFGRQITVKLTHQKNSIVWELDEFEEPKEKTYSLIGQIYYTDFSDAYVYVPGYPEPFVISKETNFSRSEEGTWVKFLACTATASVKKSEGFQFLEKDLLDTNRNREIAIKCSRKDGIIQSHHFEKVIDKDNRLADYGVLSDFENVLIYVKVSMEGVSKKPSLILGQFQTSFNVNPTLTRDQKEALDPPKRILKKQSSLPREGSSRKQVTQIQNLSRKIETGPRINFLPNFNNQDHGSEFFSDNEEMDLVPPLENSHLRVDPVPVPIEPSIQQNRTTTTAPISAPARRISSNESRRENPNSQPAPSKMQNVFREDPEAEYKRPERSNADNDETSSTISACSSKSRIVRENPDANYERPARRLPTPPLEANDNLEHQSHDSSSTDGLRDTSPVGNNTNPRSGSPSCHSDTHSSVSSSLWITTINSSKDLEFVKNEYIKLWIEDQASQKEMKNLKAKRIELKMKQKKLKAELNDEKMKNQKLEEAAFNDRKEKAELKKKVSNLEQSAQNTQRTLQNQTRELNLYSTNRSWLRKEFNSTNLLEHLRRNYHDLSKRLEQFAFN | not soluble
5 | MSSQRWLWRNQHSVQTNIGSREKDLKITKTKKIKKKHERAYELLAEAAYSDPFAALGPFIDDGEGSLRVWMPGANKVELLVNGEPRVALERDGDSGFILKEQRDLHLTHYRLAVDWNGVEQIIDDPYQYHNIYQEYEHLHTPKDM | not soluble
6 | MSSRKNFSRLTWFRKQRKAVVSSNDKKMPNGILEEQEQQRVMLLSRSPSGPKKFFPIPVEHLEEEIRVRSADDCKRFREEFNSLPSGHIQGTFELANKEENREKNRYPNILPNDHCRVILSQVDGIPCSDYINASYIDGYKEKNKFIAAQGPKQETVNDFWRMVWEQRSATIVMLTNLKERKEEKCYQYWPDQGCWTYGNIRVCVEDCVVLVDYTIRKFCIHPQLPDSCKAPRLVSQLHFTSWPDFGVPFTPIGMLKFLKKVKTLNPSHAGPIVVHCSAGVGRTGTFIVIDAMMDMIHSEQKVDVFEFVSRIRNQRPQMVQTDVQYTFIYQALLEYYLYGDTELDVSSLERHLQTLHSTATHFDKIGLEEEFRKLTNVRIMKENMRTGNLPANMKKARVIQIIPYDFNRVILSMKRGQEFTDYINASFIDGYRQKDYFMATQGPLAHTGEDFWRMVWEWKSHTIVMLTEVQEREQDKCYQYWPTEGSVTHGDITIEIKSDTLSEAISVRDFLVTFKQPLARQEEQVRMVRQFHFHGWPEVGIPAEGKGIIDLIAAVQKQQQQTGNHPITVHCSAGAGRTGTFIALSNILERVKAEGLLDVFQAVKSLRLQRPHMVQTLEQYEFCYKVVQDFIDIFSDYANFK | soluble
7 | MSSRLDQLVNKYNKSCENVSFAEHMILKDKYESLVIEHESLIKTLELLEKTHGFTVEDLVTKQKEALEKKEVIEKWENKFGEMEKKLKTVERSIEYIMSVDVQTGVDSGSANRPNVKNSYQRGIF | not soluble
8 | MSSSAPKYTTFQGSQNFRLRIVLATLSGKPIKIEKIRSGDLNPGLKDYEVSFLRLIESVTNGSVIEISYTGTTVIYRPGIIVGGASTHICPSSKPVGYFVEPMLYLAPFSKKKFSILFKGITASHNDAGIEAIKWGLMPVMEKFGVRECALHTLKRGSPPLGGGEVHLVVDSLIAQPITMHEIDRPIISSITGVAYSTRVSPSLVNRMIDGAKKVLKNLQCEVNITADVWRGENSGKSPGWGITLVAQSKQKGWSYFAEDIGDAGSIPEELGEKVACQLLEEISKSAAVGRNQLPLAIVYMVIGKEDIGRLRINKEQIDERFIILLRDIKKIFNTEVFLKPVDEADNEDMIATIKGIGFTNTSKKIA | not soluble
9 | MSSSLQSNRQSLNRKVAVMGYPHVGKSALVLRFTQNIFPERYESTIEDQHSKHIAAFHRDYHLRVTDTAGQQEYTVFPRSCSLDINGFILVYAIDDRKSFEMCSNIYEKIVRTYGDTSIPIVIVGNKTDLSTQRVVRAEEGEELARQWDAKFVEITARESNRVHEVFELLLREIEISRGNLSPTERPNGNSPKRNPFKDDGKPCSIS | not soluble
10 | MSSSSPNSSRSEAVNGRVVVPTGGSRRENSGPARGPAGFSATVLPCDEATKAAFAKDWKDLEQENLSSADYYFNSYAHFGIHEEMIKDSVRTGCYQRAICQNAHLFANKVVLDVGSGTGILSLFAAKAGAKHVYGIECSEIVNIARKIVKENDMEDKVTFVQGKAEEVSLPVEKVDIIISEWMGYFLLYESMLDTVLFCRDKWLKPGGMIFPDKAALYVAAIEDADYKEEKIGYWGNVYGFNFSCVRRCVMEEPIVDTVDENAVSTTSCCVLKLDLLTCTKEDLDFCAPYEITLRRKDFLHAFIAWFDVWFSHCHKPVVLSTGPHCRYTHWKQTVFYMEDVLVADVGDKVEGMIAVKKSQKNPRDLDIKISYTFNPPHAPAAIENTQFYRLR | soluble
11 | MSTAETAVAPVDYRTDPSQYKHWKLSFNGPVATLGIDIAEDGGIRDGYKLKLNSYDLGVDIELHDAIQRIRFEHPEVRTVVLTSLKDRVFCSGANIFMLGLSTHAWKVNFCKFTNETRNGLEDSSRHSGLKFLAAVNGACAGGGYELALACDEIYLVDDRSSSVSLPEVPLLGVLPGTGGLTRVTDKRKVRHDRADIFCTVVEGVRGERAKAWRLVDEVVKPNQFDQAIQARALELAAQSDRPAHAQGVPLTRIERTDREDGLTYKTLDVTIDRAKRIATFTAKAPQTEPPASIDAIVAAGANWWPLKFAREFDDAILSMRTNELAVGTWVFRTEGDARHLLAADASLMQHKDHWFVRETIGLLRRTLARIDVSSRSLFALIEPGSCFAGTFAELAFAADRTYMAALPANEDEEPAITLSEVNFGLYPMVTHQSRLARRFYEETEPLDAVRSRIGQAIKPVEAERLGLVTASPDDIDWADEIRIALEERAAMSPDALTGLEANLRFNGPETMETRIFGRLTAWQNWIFNRPNAVGEKGALKVYGKGSKAQFDVSRV | soluble
12 | MSTAINSVEMSLSADEIRERVRAAGVVGAGGAGFPAHVKLQAQVEIFLVNAAECEPMLKVDQQLMWQQAARLVRGVQYAMTATGAREGVIALKEKYRRAIDALTPLLPDGIRLHILPDVYPAGDEVLTIWMATGRRVAPAALPASVGVVVNNVQTVLNIARAVEQRFPVTRRTLTVNGAVARPLTVTVPIGMSLREVLALAGGATVDDPGFINGGPMMGGLITSLDNPVTKTTGGLLVLPKSHPLIQRRMQDERTVLSVARTVCEQCRLCTDLCPRHLIGHELSPHLLVRAVNFHQAATPQLLLSALTCSECNVCESVACPVGISPMRINRMLKRELRAQNQRYEGPLNPADEMAKYRLVPVKRLIAKLGLSPWYQEAPLVEEEPSVEKVTLQLRQHIGASAVANVAVGERVTRGQCVADVPPGALGAPIHASIDGVVSAISEQAITVVRGLEHHHHHH | soluble
13 | MSTDLRALLEQARQQGDYTALLEQIPYAKLIGIECTQLGDELLFRLPANKDNIGNPLLPALHGGVIAGFMELAAALHLLILTGSPGVPKIIDFSLDYLRAGQFRDTFARCQVCRQGRRVANVAITAWQSTAEESIATARAHFKIEESTGPLEHHHHHH | soluble
14 | MSTEIKTLKPQAVWEYFYDLTQIPRPTGQMDEVTKYVFDFGKRLGLETEQDEVGNVIIRKPATPGMENKPIVTLQSHLDMVPQKNSDIDHDFTKDPIDAYIDGEWVKARG | not soluble
15 | MSTEKLEASEEPQAPLANTSETNSIKGDTENIVTVFDLANEIEKSLKDVQRQMKENDDEFSRSIQAIEDKLNKMSR | not soluble
16 | MSTGANLLVMNDTCKSNRWWKTKQEKKHSEIKKVKTLKSTWDKKMELKAKKDMVKRVQDNIREKQVQERQEKKERKVEQEKRRLENERKAEIVQKITKIHKLKKTKKRQLRSIQMRDTTQVTK | not soluble
17 | MSTKADNRHLYLKVIERIKEDIKNGIYTEKEKLPSEFELSKKLGVSRATLREALRILEEEHVIIRRHGVGTFVHSKPLFLSGIEQLNSVTKMIEQANMTPGTIFLSSQVLMPSEDDTKRFHLAEGQELFYLERVRTADGQPIVYCIDKIPMNILPNSFSHQQESMFDLLEKNSGSVISYAVTDIEPIGYHDTISPVLECDPETALLLLKQTHYDQHDKPVLYSLNYFRADKFRFHVLRKRF | not soluble
18 | MSTKEKKTKKPHNVKSSVVPPKKWKTKKKDKKGTGKLRKTASNASLKKHGSTHKIKKPEDITSDGCPLLLTASDTCANIYAEQLSAPNNLSAKTSTPHKSIEAALTPVAFSPPPATQATQAMDAPATTKTAVKPTKWKAEDVAVAYIQKLDPGVIRAEYIEACAATKVNIDKDCQLWKKNLQMNQADNYPILDSTIVKNPAQPDSYVNMSSVIVPHCRYPILMAQMPKRGFEEEFWRAAFNESVVIMYVLMGTEDEKNDFFPTTMGAYVYYGAMFVNIRKVEKMDEERTRYTIEVLPNGFSNSVMMNVYVHTGWEASGVPVRYANTTRSVVDVMNFVKTSSGTEKMLVVSKNGCGRAGFFLSLGAAFCCLNDNSEPRIGEIVKAIRSQRPNAVDSIKQYASIYLCFVYYIKKKITIPEGMQQKFDDLKKGIEAIIREDLSIMY | not soluble
19 | MSTLAQLLDTKRTALAAELAGFIDRSVSQSSGISGVALKGAVAAAKKVRPDIVTKGAERLLPEVVEVLDPYWASFEASDSTHFGEFLEQHKSEVSDKILEVADRNAEKVDMPALKKAYGSLRGKAASFIEPNLPGLGQIMQNYMK | not soluble
20 | MSTNLNIEVSINLTEIDVNAQLAEFARFQQVRDDSRYAQDVEREFVLGPIRHHRRQLEPSRSAPLASTEQPVAQATTHPSTENARVPALVLRSGSWRALPVAQGGSSHIRIWPVSRSATTTSTATRHPPFTNTSASTSFAPYQRHRGSALQTSECTICFEKPVDPRGCPKCLKVIGCKKCVKKWFDTSASKACPLCRFEWKLHRDNPDVVKISTLEVLKRQKQNRP | not soluble
21 | MSTPHINVIGAGLAGSEAAWQIAERGIAVHLYEMRPVKQTPAHHTDKFAELVCSNSLRGNSLTNAVGVLKEEMRRLNSVIIRSADRCSVPAGGALAVDRHEFAQAVTEAVREHPNVTVFTEEIQKIPDGPTVIATGPLTSKALSEQLKQLTGEEYLYFYDAAAPIIETDSINMDKVYLKSRYDKGEAAYLNCPMTEEEFDRFYEALISAETVPLKEFEKEVFFEGCMPVEVMAKRGKKTLLFGPMKPVGLEDPKTGKRPYAVVQLRRDNQSGTLYNIVGFQTHLKWGPQKEVIQLIPGLENAEIVRYGVMHRNTFINSPNLLKPTYQYKKRKDLFFAGQITGVEGYVESAAAGLVAGLNAARLVQSKELVVFPDTTMLGSMANYITTANSKNFQPMNANFGLLPPLDTRIKDKKTRYETLAGRALESIQNFVKKMLEHHHHHH | soluble
